# Publication PMC7658486
# Target: rainbow trout IL-2 (IL-2A), FLAG-tagged, from insect cells (rainbow trout (Oncorhynchus mykiss))
# Assay: SEC; Superose 12 column, PBS (-), 0.5 ml/min, 10-15 μg protein purified from insect cell supernatant; calibrated with standard proteins
substance,measurement,value
"rainbow trout IL-2 (IL-2A), FLAG-tagged, from insect cells (ligand)",stoichiometry N,2
